From US20180170984

Molecular target: APOBEC3A wild-type (Homo sapiens) (UniProt P31941)
Details: 5-nitroindole at positions 12-14; deamination activity

Sequence of APOBEC3A wild-type (Homo sapiens) (P31941 whole entry): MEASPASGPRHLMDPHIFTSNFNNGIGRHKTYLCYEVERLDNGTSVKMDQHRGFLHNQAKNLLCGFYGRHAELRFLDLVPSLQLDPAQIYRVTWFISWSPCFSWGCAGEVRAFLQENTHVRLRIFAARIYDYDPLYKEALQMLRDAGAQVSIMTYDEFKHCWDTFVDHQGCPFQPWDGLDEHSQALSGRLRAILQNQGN

AAAAAAAAATCNNNAAAAAAA [+1 to +3 5-nitroindole substrate]
binding signal (fold lower than n3): 2
